According to article PMC8210318:

Molecular target: replication protein A (RPA) heterotrimer (UniProt P27694)

free, unbound DNA liberated from pre-bound RPA (12.5 nM)–fork-2 DNA complex in EMSAs on incremental addition of N-HelQ (0–500 nM): 40%
B1: N-HelQ, N-terminal HelQ fragment (amino acids 1-240) (domain or fragment)
chain: MDECGSRIRRRVSLPKRNRPSLGCIFGAPTAAELVPGDEGKEEEEMVAENRRRKTAGVLPVEVQPLLLSDSPECLVLGGGDTNPDLLRHMPTDRGVGDQPNDSEVDMFGDYDSFTENSFIAQVDDLEQKYMQLPEHKKHATDFATENLCSESIKNKLSITTIGNLTELQTDKHTENQSGYEGVTIEPGADLLYDVPSSQAIYFENLQNSSNDLGDHSMKERDWKSSSHNTVNEELPHNCI
